Here are results for 19 variants from the supplement of paper PMC10266784.

The chains are these.
B1: library; numbered along this chain (parent)
chain: MAAAAAAAAEQQSSNGPVKKSMREKAVERRSVNKEHNSNFKAGYIPIDEDRLHKTGLRGRKGNLAICVIILLFILAVINLIITLVIWAVIRIGPNGCDSMEFHESGLLRFKQVSDMGVIHPLYKSTVGGRRNENLVITGNNQPIVFQQGTTKLSVENNKTSITSDIGMQFFDPRTQNILFSTDYETHEFHLPSGVKSLNVQKASTERITSNATSDLNIKVDGRAIVRGNEGVFIMGKTIEFHMGGNMELKAENSIILNGSVMVSTTRLPSSSSGDQLGSGDWVRYKLCMCADGTLFKVQVTSQNMGCQISDNPCGNTH

Variants of B1 are the subject of the data set. The data set is described as follows: SGCB cell-surface expression functional score (HA stain, bin4 vs bin1, normalised to synonymous) (log10 ratio); higher = more cell-surface SGCB (functional). The protocol: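 Deep mutational scan of full-length human SGCB (YFP-SGCB-HA, NNN codon sublibraries A-F) delivered by lentivirus at low MOI into ADG-HEK293 cells stably expressing SGCA, SGCD and SGCG. YFP-positive cells were stained for surface HA on unpermeabilized cells and FACS-sorted into bins. The functional score is log10(frequency in high bin 4 / frequency in low bin 1), normalised per chunk so that synonymous variants have mean 0 and SD 0.5. Scores are the median over codons and over duplicate biological replicates; scores below -0.5 are called non-functional. Scale: negative means deleterious.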
Turning to MAAAAAAAAEQQSSNGPVKKSMREKAVERRSVNKEHNSNFKAGYIPIDEDRLHKTGLRGRKGNLAICVAILLFILAVINLIITLVIWAVIRIGPNGCDSMEFHESGLLRFKQVSDMGVIHPLYKSTVGGRRNENLVITGNNQPIVFQQGTTKLSVENNKTSITSDIGMQFFDPRTQNILFSTDYETHEFHLPSGVKSLNVQKASTERITSNATSDLNIKVDGRAIVRGNEGVFIMGKTIEFHMGGNMELKAENSIILNGSVMVSTTRLPSSSSGDQLGSGDWVRYKLCMCADGTLFKVQVTSQNMGCQISDNPCGNTH [I69A], the “SGCB cell-surface expression functional score (log10)” value is -0.17. Consider MAAAAAAAAEQQSSNGPVKKSMREKAVERRSVNKEHNSNFKAGYIPIDEDRLHKTGLRGRKGNLAICVDILLFILAVINLIITLVIWAVIRIGPNGCDSMEFHESGLLRFKQVSDMGVIHPLYKSTVGGRRNENLVITGNNQPIVFQQGTTKLSVENNKTSITSDIGMQFFDPRTQNILFSTDYETHEFHLPSGVKSLNVQKASTERITSNATSDLNIKVDGRAIVRGNEGVFIMGKTIEFHMGGNMELKAENSIILNGSVMVSTTRLPSSSSGDQLGSGDWVRYKLCMCADGTLFKVQVTSQNMGCQISDNPCGNTH [I69D], for which the “SGCB cell-surface expression functional score (log10)” value is -0.11.

With MAAAAAAAAEQQSSNGPVKKSMREKAVERRSVNKEHNSNFKAGYIPIDEDRLHKTGLRGRKGNLAICVCILLFILAVINLIITLVIWAVIRIGPNGCDSMEFHESGLLRFKQVSDMGVIHPLYKSTVGGRRNENLVITGNNQPIVFQQGTTKLSVENNKTSITSDIGMQFFDPRTQNILFSTDYETHEFHLPSGVKSLNVQKASTERITSNATSDLNIKVDGRAIVRGNEGVFIMGKTIEFHMGGNMELKAENSIILNGSVMVSTTRLPSSSSGDQLGSGDWVRYKLCMCADGTLFKVQVTSQNMGCQISDNPCGNTH [I69C], the “SGCB cell-surface expression functional score (log10)” value worked out at 0.05. Then MAAAAAAAAEQQSSNGPVKKSMREKAVERRSVNKEHNSNFKAGYIPIDEDRLHKTGLRGRKGNLAICYIILLFILAVINLIITLVIWAVIRIGPNGCDSMEFHESGLLRFKQVSDMGVIHPLYKSTVGGRRNENLVITGNNQPIVFQQGTTKLSVENNKTSITSDIGMQFFDPRTQNILFSTDYETHEFHLPSGVKSLNVQKASTERITSNATSDLNIKVDGRAIVRGNEGVFIMGKTIEFHMGGNMELKAENSIILNGSVMVSTTRLPSSSSGDQLGSGDWVRYKLCMCADGTLFKVQVTSQNMGCQISDNPCGNTH [V68Y], with -0.25; and MAAAAAAAAEQQSSNGPVKKSMREKAVERRSVNKEHNSNFKAGYIPIDEDRLHKTGLRGRKGNLAICLIILLFILAVINLIITLVIWAVIRIGPNGCDSMEFHESGLLRFKQVSDMGVIHPLYKSTVGGRRNENLVITGNNQPIVFQQGTTKLSVENNKTSITSDIGMQFFDPRTQNILFSTDYETHEFHLPSGVKSLNVQKASTERITSNATSDLNIKVDGRAIVRGNEGVFIMGKTIEFHMGGNMELKAENSIILNGSVMVSTTRLPSSSSGDQLGSGDWVRYKLCMCADGTLFKVQVTSQNMGCQISDNPCGNTH [V68L], with -0.04; and MAAAAAAAAEQQSSNGPVKKSMREKAVERRSVNKEHNSNFKAGYIPIDEDRLHKTGLRGRKGNLAICRIILLFILAVINLIITLVIWAVIRIGPNGCDSMEFHESGLLRFKQVSDMGVIHPLYKSTVGGRRNENLVITGNNQPIVFQQGTTKLSVENNKTSITSDIGMQFFDPRTQNILFSTDYETHEFHLPSGVKSLNVQKASTERITSNATSDLNIKVDGRAIVRGNEGVFIMGKTIEFHMGGNMELKAENSIILNGSVMVSTTRLPSSSSGDQLGSGDWVRYKLCMCADGTLFKVQVTSQNMGCQISDNPCGNTH [V68R], with 0.06. MAAAAAAAAEQQSSNGPVKKSMREKAVERRSVNKEHNSNFKAGYIPIDEDRLHKTGLRGRKGNLAICGIILLFILAVINLIITLVIWAVIRIGPNGCDSMEFHESGLLRFKQVSDMGVIHPLYKSTVGGRRNENLVITGNNQPIVFQQGTTKLSVENNKTSITSDIGMQFFDPRTQNILFSTDYETHEFHLPSGVKSLNVQKASTERITSNATSDLNIKVDGRAIVRGNEGVFIMGKTIEFHMGGNMELKAENSIILNGSVMVSTTRLPSSSSGDQLGSGDWVRYKLCMCADGTLFKVQVTSQNMGCQISDNPCGNTH [V68G]: the “SGCB cell-surface expression functional score (log10)” value is 0.24. Regarding MAAAAAAAAEQQSSNGPVKKSMREKAVERRSVNKEHNSNFKAGYIPIDEDRLHKTGLRGRKGNLAICKIILLFILAVINLIITLVIWAVIRIGPNGCDSMEFHESGLLRFKQVSDMGVIHPLYKSTVGGRRNENLVITGNNQPIVFQQGTTKLSVENNKTSITSDIGMQFFDPRTQNILFSTDYETHEFHLPSGVKSLNVQKASTERITSNATSDLNIKVDGRAIVRGNEGVFIMGKTIEFHMGGNMELKAENSIILNGSVMVSTTRLPSSSSGDQLGSGDWVRYKLCMCADGTLFKVQVTSQNMGCQISDNPCGNTH [V68K], the “SGCB cell-surface expression functional score (log10)” value was 0. MAAAAAAAAEQQSSNGPVKKSMREKAVERRSVNKEHNSNFKAGYIPIDEDRLHKTGLRGRKGNLAICPIILLFILAVINLIITLVIWAVIRIGPNGCDSMEFHESGLLRFKQVSDMGVIHPLYKSTVGGRRNENLVITGNNQPIVFQQGTTKLSVENNKTSITSDIGMQFFDPRTQNILFSTDYETHEFHLPSGVKSLNVQKASTERITSNATSDLNIKVDGRAIVRGNEGVFIMGKTIEFHMGGNMELKAENSIILNGSVMVSTTRLPSSSSGDQLGSGDWVRYKLCMCADGTLFKVQVTSQNMGCQISDNPCGNTH [V68P]: the “SGCB cell-surface expression functional score (log10)” value was determined as 0. As to MAAAAAAAAEQQSSNGPVKKSMREKAVERRSVNKEHNSNFKAGYIPIDEDRLHKTGLRGRKGNLAICNIILLFILAVINLIITLVIWAVIRIGPNGCDSMEFHESGLLRFKQVSDMGVIHPLYKSTVGGRRNENLVITGNNQPIVFQQGTTKLSVENNKTSITSDIGMQFFDPRTQNILFSTDYETHEFHLPSGVKSLNVQKASTERITSNATSDLNIKVDGRAIVRGNEGVFIMGKTIEFHMGGNMELKAENSIILNGSVMVSTTRLPSSSSGDQLGSGDWVRYKLCMCADGTLFKVQVTSQNMGCQISDNPCGNTH [V68N], the “SGCB cell-surface expression functional score (log10)” value came out at 0.03. MAAAAAAAAEQQSSNGPVKKSMREKAVERRSVNKEHNSNFKAGYIPIDEDRLHKTGLRGRKGNLAICTIILLFILAVINLIITLVIWAVIRIGPNGCDSMEFHESGLLRFKQVSDMGVIHPLYKSTVGGRRNENLVITGNNQPIVFQQGTTKLSVENNKTSITSDIGMQFFDPRTQNILFSTDYETHEFHLPSGVKSLNVQKASTERITSNATSDLNIKVDGRAIVRGNEGVFIMGKTIEFHMGGNMELKAENSIILNGSVMVSTTRLPSSSSGDQLGSGDWVRYKLCMCADGTLFKVQVTSQNMGCQISDNPCGNTH [V68T]: the “SGCB cell-surface expression functional score (log10)” value was determined as 0.29. MAAAAAAAAEQQSSNGPVKKSMREKAVERRSVNKEHNSNFKAGYIPIDEDRLHKTGLRGRKGNLAICSIILLFILAVINLIITLVIWAVIRIGPNGCDSMEFHESGLLRFKQVSDMGVIHPLYKSTVGGRRNENLVITGNNQPIVFQQGTTKLSVENNKTSITSDIGMQFFDPRTQNILFSTDYETHEFHLPSGVKSLNVQKASTERITSNATSDLNIKVDGRAIVRGNEGVFIMGKTIEFHMGGNMELKAENSIILNGSVMVSTTRLPSSSSGDQLGSGDWVRYKLCMCADGTLFKVQVTSQNMGCQISDNPCGNTH [V68S]: the “SGCB cell-surface expression functional score (log10)” value is 0.36. With MAAAAAAAAEQQSSNGPVKKSMREKAVERRSVNKEHNSNFKAGYIPIDEDRLHKTGLRGRKGNLAICQIILLFILAVINLIITLVIWAVIRIGPNGCDSMEFHESGLLRFKQVSDMGVIHPLYKSTVGGRRNENLVITGNNQPIVFQQGTTKLSVENNKTSITSDIGMQFFDPRTQNILFSTDYETHEFHLPSGVKSLNVQKASTERITSNATSDLNIKVDGRAIVRGNEGVFIMGKTIEFHMGGNMELKAENSIILNGSVMVSTTRLPSSSSGDQLGSGDWVRYKLCMCADGTLFKVQVTSQNMGCQISDNPCGNTH [V68Q], the “SGCB cell-surface expression functional score (log10)” value was -0.15. With MAAAAAAAAEQQSSNGPVKKSMREKAVERRSVNKEHNSNFKAGYIPIDEDRLHKTGLRGRKGNLAICIIILLFILAVINLIITLVIWAVIRIGPNGCDSMEFHESGLLRFKQVSDMGVIHPLYKSTVGGRRNENLVITGNNQPIVFQQGTTKLSVENNKTSITSDIGMQFFDPRTQNILFSTDYETHEFHLPSGVKSLNVQKASTERITSNATSDLNIKVDGRAIVRGNEGVFIMGKTIEFHMGGNMELKAENSIILNGSVMVSTTRLPSSSSGDQLGSGDWVRYKLCMCADGTLFKVQVTSQNMGCQISDNPCGNTH [V68I], the “SGCB cell-surface expression functional score (log10)” value is 0.05. In the case of MAAAAAAAAEQQSSNGPVKKSMREKAVERRSVNKEHNSNFKAGYIPIDEDRLHKTGLRGRKGNLAICWIILLFILAVINLIITLVIWAVIRIGPNGCDSMEFHESGLLRFKQVSDMGVIHPLYKSTVGGRRNENLVITGNNQPIVFQQGTTKLSVENNKTSITSDIGMQFFDPRTQNILFSTDYETHEFHLPSGVKSLNVQKASTERITSNATSDLNIKVDGRAIVRGNEGVFIMGKTIEFHMGGNMELKAENSIILNGSVMVSTTRLPSSSSGDQLGSGDWVRYKLCMCADGTLFKVQVTSQNMGCQISDNPCGNTH [V68W], the “SGCB cell-surface expression functional score (log10)” value turned out to be 0.12. Turning to MAAAAAAAAEQQSSNGPVKKSMREKAVERRSVNKEHNSNFKAGYIPIDEDRLHKTGLRGRKGNLAICEIILLFILAVINLIITLVIWAVIRIGPNGCDSMEFHESGLLRFKQVSDMGVIHPLYKSTVGGRRNENLVITGNNQPIVFQQGTTKLSVENNKTSITSDIGMQFFDPRTQNILFSTDYETHEFHLPSGVKSLNVQKASTERITSNATSDLNIKVDGRAIVRGNEGVFIMGKTIEFHMGGNMELKAENSIILNGSVMVSTTRLPSSSSGDQLGSGDWVRYKLCMCADGTLFKVQVTSQNMGCQISDNPCGNTH [V68E], the “SGCB cell-surface expression functional score (log10)” value is -0.1. Take MAAAAAAAAEQQSSNGPVKKSMREKAVERRSVNKEHNSNFKAGYIPIDEDRLHKTGLRGRKGNLAICFIILLFILAVINLIITLVIWAVIRIGPNGCDSMEFHESGLLRFKQVSDMGVIHPLYKSTVGGRRNENLVITGNNQPIVFQQGTTKLSVENNKTSITSDIGMQFFDPRTQNILFSTDYETHEFHLPSGVKSLNVQKASTERITSNATSDLNIKVDGRAIVRGNEGVFIMGKTIEFHMGGNMELKAENSIILNGSVMVSTTRLPSSSSGDQLGSGDWVRYKLCMCADGTLFKVQVTSQNMGCQISDNPCGNTH [V68F]: the “SGCB cell-surface expression functional score (log10)” value came out at 0.55. As for MAAAAAAAAEQQSSNGPVKKSMREKAVERRSVNKEHNSNFKAGYIPIDEDRLHKTGLRGRKGNLAICMIILLFILAVINLIITLVIWAVIRIGPNGCDSMEFHESGLLRFKQVSDMGVIHPLYKSTVGGRRNENLVITGNNQPIVFQQGTTKLSVENNKTSITSDIGMQFFDPRTQNILFSTDYETHEFHLPSGVKSLNVQKASTERITSNATSDLNIKVDGRAIVRGNEGVFIMGKTIEFHMGGNMELKAENSIILNGSVMVSTTRLPSSSSGDQLGSGDWVRYKLCMCADGTLFKVQVTSQNMGCQISDNPCGNTH [V68M], the “SGCB cell-surface expression functional score (log10)” value is -0.35. On to MAAAAAAAAEQQSSNGPVKKSMREKAVERRSVNKEHNSNFKAGYIPIDEDRLHKTGLRGRKGNLAICHIILLFILAVINLIITLVIWAVIRIGPNGCDSMEFHESGLLRFKQVSDMGVIHPLYKSTVGGRRNENLVITGNNQPIVFQQGTTKLSVENNKTSITSDIGMQFFDPRTQNILFSTDYETHEFHLPSGVKSLNVQKASTERITSNATSDLNIKVDGRAIVRGNEGVFIMGKTIEFHMGGNMELKAENSIILNGSVMVSTTRLPSSSSGDQLGSGDWVRYKLCMCADGTLFKVQVTSQNMGCQISDNPCGNTH [V68H], for which the “SGCB cell-surface expression functional score (log10)” value was -0.35.
